Results from patent US20160304615A1 (Regeneron, published 2016).

What was measured:
EGFRvIII-mFc = target: T1, EGFRvIII-mFc (human); test: SPR 37C, receptor-capture
T1 construct: Soluble dimeric protein
Procedure: Measurements were conducted on a T100 BIACORE™ instrument. […] In the receptor-capture format, either EGFRvIII-mFc or EGFR-mFc, was captured on the BIACORE™ chip and the respective antibodies flowed over. Kinetic association (kₐ) and dissociation (kd) rate constants were determined by processing and fitting the data to a 1:1 binding model using Scrubber 2.0 curve fitting software. Binding dissociation equilibrium constants (KD) and dissociative half-lives (t_{1/2}) were calculated from the kinetic rate constants as: KD (M)=kd/kₐ; and t₁₁₂ (min)=ln2/(60*kd).

[1] = target: T2, C-terminal biotin-labeled EGFR311-326 peptide (human, biotin at the C-terminus); test: BLI (Octet RED), biotinylated peptide on streptavidin tips
T2 peptide: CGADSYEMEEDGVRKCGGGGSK
Procedure: After peptide capture, the coated tips were placed in 1 μM solutions of antibody and the binding responses were recorded (see FIG. 2). Controls I-III are the same as those described above.

B1: H1H1863N2(Fuc-) (antibody, human IgG1, V domains shown)
VH: EVQLVESGGGLVQPGGSLRLSCAASGFPFSSYDMHWVRQATGKGLEWVSAIGTAGATYYPGSVKGRFTISRENAKNSLYLQMNSLRAGDTAVYYCARGDYVWGTYRPLFDYWGQGTLVTVSS
VL: DIQLTQSPSFLSASVGDRVTITCWASQGINNYLAWYQQKPGKAPKLLIYAASTLQTGVPSRFSGSGSGTEFTLTISSLQPEDFATYYCQQLNSYPLTFGGGTKVEIK
notes: Human IgG1; also called H1H1863N2 with reduced fucosylation; H1H1862N2 (Fuc-)
With B1 the T½ (EGFRvIII-mFc) was 54 min and the binding result [1] was “no binding (tested: 1 µM)”.
